Test results taken from the Immune Epitope Database (IEDB).

Legend:
Experiment in all cases: IEDB peptide-MHC binding, purified MHC/competitive/radioactivity; filed as Kd, often an IC50 or EC50 that approximates it; ≥ and ≤ were set here for values at or beyond the usual limits of such assays
HLA-A*03:01 = molecular target: HLA-A*03:01
HLA-A*11:01 = molecular target: HLA-A*11:01
HLA-A*31:01 = molecular target: HLA-A*31:01
HLA-A*33:01 = molecular target: HLA-A*33:01
HLA-A*68:01 = molecular target: HLA-A*68:01
[1] = source organism: Vaccinia virus WR
[2] = source organism: Mammarenavirus guanaritoense
[3] = source organism: SARS coronavirus Tor2
[4] = source organism: Dengue virus 4 Philippines/H241/1956
[5] = source organism: Lymphocytic choriomeningitis virus (strain WE)
[6] = source organism: Dengue virus 1 Nauru/West Pac/1974
[7] = source organism: Dengue virus 3 Martinique/1243/1999

Row | Sequence | Kd (HLA-A*03:01; [1]) [nM] | Kd (HLA-A*11:01; [1]) [nM] | Kd (HLA-A*31:01; [1]) [nM] | Kd (HLA-A*33:01; [1]) [nM] | Kd (HLA-A*68:01; [1]) [nM] | further results
1 | SIKIKQDVR | 10800 | 5370 | 313 | 4450 | 316 | –
2 | PMPYMISTY | ≥ 45300 | ≥ 42100 | ≥ 34900 | ≥ 77700 | 1340 | –
3 | FESLFKCLSH | – | – | – | – | – | Kd (HLA-A*03:01; [2]): 5530 nM; Kd (HLA-A*31:01; [2]): 608 nM; Kd (HLA-A*33:01; [2]): 2750 nM
4 | TQYNRYLALY | – | – | – | – | – | Kd (HLA-A*03:01; [3]): 266 nM; Kd (HLA-A*11:01; [3]): 1570 nM; Kd (HLA-A*31:01; [3]): 283 nM; Kd (HLA-A*33:01; [3]): 1610 nM; Kd (HLA-A*68:01; [3]): 99.3 nM
5 | KWLWGFLSR | – | – | – | – | – | Kd (HLA-A*31:01; source organism: Dengue virus 1 Brazil/97-11/1997): ≥ 77900 nM
6 | VFSFWLLCK | 281 | 11.9 | 872 | 4130 | 298 | –
7 | KAFKNNLSR | 301 | 152 | 25.4 | 4140 | 171 | –
8 | EVGSIRCVK | 543 | 332 | 5910 | 83 | 1.19 | –
9 | NFSIIELPY | 716 | 1070 | 6320 | ≥ 35000 | 3440 | –
10 | GVSYEVFDDY | ≥ 70100 | 504 | ≥ 70000 | ≥ 70000 | ≥ 70200 | –
11 | GYVLGIFLR | – | – | – | – | – | Kd (HLA-A*31:01; [4]): 15.7 nM; Kd (HLA-A*33:01; [4]): 39.8 nM
12 | IVSSVNTTSK | – | – | – | – | – | Kd (HLA-A*03:01; [4]): 37.2 nM; Kd (HLA-A*11:01; [4]): 234 nM
13 | SVFKGFSDK | 4.28 | 0.852 | 764 | 13500 | 5.49 | –
14 | YTIERIFNAK | 231 | 36.2 | 3550 | 875 | 10.3 | –
15 | VLAAECTIFK | – | – | – | – | – | Kd (HLA-A*03:01; [3]): 59.9 nM; Kd (HLA-A*11:01; [3]): 104 nM; Kd (HLA-A*31:01; [3]): 133 nM; Kd (HLA-A*33:01; [3]): 70.2 nM; Kd (HLA-A*68:01; [3]): 258 nM
16 | SAYLISIFLH | – | – | – | – | – | Kd (HLA-A*03:01; [5]): 668 nM; Kd (HLA-A*11:01; [5]): 5450 nM; Kd (HLA-A*31:01; [5]): 250 nM; Kd (HLA-A*33:01; [5]): 874 nM; Kd (HLA-A*68:01; [5]): ≥ 30900 nM

Row | Sequence | Kd (HLA-A*03:01; [1]) [nM] | Kd (HLA-A*11:01; [1]) [nM] | Kd (HLA-A*31:01; [1]) [nM] | Kd (HLA-A*33:01; [1]) [nM] | Kd (HLA-A*68:01; [1]) [nM] | further results
17 | NSSIISLFY | 56.7 | 44.6 | 5260 | 7080 | 125 | –
18 | NIERQDYRR | ≥ 66800 | 12000 | 1500 | 924 | 119 | –
19 | YIPGTSVIR | ≥ 78000 | ≥ 77900 | 664 | 2900 | 40.4 | –
20 | KSLLLLNTR | 689 | 114 | 0.627 | 1160 | 16900 | –
21 | FMRDWNSKY | 8370 | ≥ 77900 | ≥ 77900 | ≥ 66300 | ≥ 77700 | –
22 | STVSQLAKR | – | – | – | – | – | Kd (HLA-A*31:01; [6]): ≥ 77900 nM; Kd (HLA-A*68:01; [6]): 9.66 nM
23 | ETTILDVDLR | – | – | – | – | – | Kd (HLA-A*68:01; [4]): 45 nM
24 | YTHGIVFDGK | 7.46 | 8.46 | 156 | 350 | 4.56 | –
25 | NAVYQCRKLR | 7270 | 17700 | 348 | 6350 | 332 | –
26 | TVVQRCASNK | – | – | – | – | – | Kd (HLA-A*03:01; [3]): 140 nM; Kd (HLA-A*11:01; [3]): 103 nM; Kd (HLA-A*31:01; [3]): 224 nM; Kd (HLA-A*33:01; [3]): 7490 nM; Kd (HLA-A*68:01; [3]): 122 nM
27 | MVLLQMENK | – | – | – | – | – | Kd (HLA-A*11:01; source organism: Dengue virus 2 Thailand/NGS-C/1944): 227 nM
28 | SSIVRQLFK | – | – | – | – | – | Kd (HLA-A*03:01; [3]): 58.8 nM; Kd (HLA-A*11:01; [3]): 73.2 nM; Kd (HLA-A*31:01; [3]): 2000 nM; Kd (HLA-A*33:01; [3]): ≥ 77700 nM; Kd (HLA-A*68:01; [3]): 392 nM
29 | AISDYDYYR | – | – | – | – | – | Kd (HLA-A*03:01; [3]): 86.5 nM; Kd (HLA-A*11:01; [3]): 65 nM; Kd (HLA-A*31:01; [3]): 26 nM; Kd (HLA-A*33:01; [3]): 490 nM; Kd (HLA-A*68:01; [3]): 118 nM
30 | CVFAYVGCY | – | – | – | – | – | Kd (HLA-A*03:01; [3]): 19200 nM; Kd (HLA-A*11:01; [3]): ≥ 27500 nM; Kd (HLA-A*31:01; [3]): 11900 nM; Kd (HLA-A*33:01; [3]): ≥ 20600 nM; Kd (HLA-A*68:01; [3]): 4120 nM
31 | ATTVITPMLR | – | – | – | – | – | Kd (HLA-A*11:01; [7]): 222 nM; Kd (HLA-A*31:01; [7]): 163 nM; Kd (HLA-A*68:01; [7]): 47.2 nM
